Target: the molecule itself
Experiment: SEC; purified recombinant protein (100 uM) on an analytical Superdex 75 10/300 column, 0.5 ml/min, UV absorbance at 280 nm

B1: His-tagged WT mouse Thioesterase superfamily member 2 (Them2), purified recombinant (enzyme, UniProt Q9CQR4 1-140, looked up)
chain: MSSMTQNLREVMKVMFKVPGFDRVLEKVTLVSAAPEKLICEMKVEEQHTNKLGTLHGGLTATLVDSISTMALMCTERGAPGVSVDMNITYMSPAKIGEEIVITAHILKQGKTLAFASVDLTNKTTGKLIAQGRHTKHLGN
notes: also called WT Them2; acyl-CoA thioesterase 13
With B1 the “stoichiometry N” value was 4.

B2: His-tagged N50A/D65A mouse Them2, purified recombinant (enzyme, UniProt Q9CQR4 1-140, looked up)
chain: MSSMTQNLREVMKVMFKVPGFDRVLEKVTLVSAAPEKLICEMKVEEQHTAKLGTLHGGLTATLVASISTMALMCTERGAPGVSVDMNITYMSPAKIGEEIVITAHILKQGKTLAFASVDLTNKTTGKLIAQGRHTKHLGN
notes: also called N50A/D65A Them2
In the case of B2, the “stoichiometry N” value is reported as 4.
